In article PMC5487423:

Molecular target: P991_AMBCA, purified, C-terminal StrepII-8xHis tag (Amblyomma cajennense)
Assay: BLI; Kd and koff determination: His-tagged evasin immobilised on Ni-NTA biosensor (OctetRed), chemokine dilutions from 300 nM to 0.4 nM, 30 °C, same buffer as the screen; reference protein subtracted; 1:1 model with global fit, or steady state; each experiment once

CCL13 (from UniProt Q99616 17-98) (ligand)
dissociation half-life: 163 min
